Test results reported in the supplement of paper PMC7125110.
± gives the standard error. Fewer inactive variants are shown than the library holds.

B1: glmS ribozyme (parent)
chain: AUAAAAGCGCCAGAACUACAGAAAUGUAGUUGACGAGGAGGAGGUUUAUCGAAUUUUCGGCGGAUGCCUCCAAA

Legend:
Conditions in all cases: with glucosamine-6-phosphate
[1] = variants of: B1; assay: self-cleavage kobs at 40 uM GlcN6P; higher = faster cleavage; RNA array
Outline: (§1)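 Ribozyme variants carrying barcodes were transcribed in situ on sequenced MiSeq chips by E. coli RNA polymerase and tracked at 37 °C with a hybridised Cy3 probe. They were exposed to 40 μM to 10 mM glucosamine-6-phosphate in HEPES/KCl/Mg(OAc)2 buffer. kobs came from exponential decay fits of normalised per-tile medians, and kcat and KM from weighted Michaelis–Menten fits.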

[2] = variants of: B1; assay: self-cleavage kobs at 2500 uM GlcN6P; higher = faster cleavage; RNA array
Outline: as §1

[3] = variants of: B1; assay: self-cleavage kobs at 10000 uM GlcN6P; higher = faster cleavage; RNA array
Outline: as §1

[4] = variants of: B1; assay: self-cleavage kobs at 640 uM GlcN6P; higher = faster cleavage; RNA array
Outline: as §1

[5] = variants of: B1; assay: self-cleavage kobs at 160 uM GlcN6P; higher = faster cleavage; RNA array
Outline: as §1

Variant	self-cleavage kobs at 40 uM GlcN6P [1] [s⁻¹]	self-cleavage kobs at 2500 uM GlcN6P [2] [s⁻¹]	self-cleavage kobs at 10000 uM GlcN6P [3] [s⁻¹]	self-cleavage kobs at 640 uM GlcN6P [4] [s⁻¹]	self-cleavage kobs at 160 uM GlcN6P [5] [s⁻¹]
AUAAAAGCGCCAGAACUACAGAAAUGUAGUUGACGAGGAGGAGGUUUAUCGAAUUUUCGGCGGAUGCUUAUAAA [C68U C70A C71U]	< 1e-05	< 1e-05	< 1e-05	–	–
AUAAAAGCGCCAGAACUACAGAAAUGUAGUUGACGCGGAGUAGGUUUAUCAAAUUUUCGUCGGAUGCCUCCAAA [A36C G41U G51A G60U]	< 1e-05	< 1e-05	–	< 1e-05	–
AUAAAAGCGCCAGAACUACAGAAAUGUAGUUGAUGAGGAGAAGGUUUAUUGAAUUUUCGGCGGAUGCUUCCAAA [C34U G41A C50U C68U]	< 1e-05	< 1e-05	–	–	–
AUAAAAGCGUCAGAGCUACAGAAAUGUAGUUGACGAGGAGGAGGUUUAUCGAAUUUUCGGCGGAUGGCUCCAAA [C10U A15G C67G]	< 1e-05	–	–	6.46e-05 ± 2.3e-05	–
AUAAAAGCGCCAGAACUACAGAAAUGUAGUUGACGAGGAGGAGGUUUAUUGAAUUUACGUCGGAUGCCUCCAAA [C50U U57A G60U]	< 1e-05	–	< 1e-05	–	–
AUAAAAGUGCCAGAACUACAGAAAUGUAGUUGACGAGGAGGAAGUUUAUCGAAUUCUCGGCGGAUGCCUCCAAA [C8U G43A U56C]	< 1e-05	–	< 1e-05	–	–
AUAAAAGCGCCAGUACUACAGAAAUGUAGUUGACGAGGAGGAGGUUUAUCGAAUUUUCGGCAGAUGCCUCCAAA [A14U G62A]	< 1e-05	< 1e-05	< 1e-05	< 1e-05	–
AUAAAAGCGCCAGAAAUACAGAAAUGUAGUUCACGAGGAGCAGGUUUAUCGAAUUUUCGGCGGAUGCUUAUAAA [C16A G32C G41C C68U C70A C71U]	< 1e-05	–	–	–	–
AUAAAAGCGCCAGAACUACAGAAAUGUAGUUGACGAGGAGCAGGUUUAUCGAAUUUUCAGCGGAUGCCUCCAAA [G41C G59A]	< 1e-05	–	–	< 1e-05	–
AUAAAAGCGCCAGAAGUACAGAAAUGUAGUUGACGAGGAGGAGGUUUAUCGAAUUUUCGGCUGAUGCCUCCAAA [C16G G62U]	< 1e-05	< 1e-05	< 1e-05	< 1e-05	< 1e-05
AUAAAAGCGCCAUAACUACAGAAAUGUAGUAGACGAGGCGGAGGUUUAUCGAAUUUUCGGCGGAUGCUACCAAA [G13U U31A A39C C68U U69A]	< 1e-05	–	–	< 1e-05	< 1e-05
AUAAAAGCGCCAGGAACUACGAAAUGUAGUUGACGAGGAGGAGGUUUAUCGAAUUUUCGGCGGAUGCCUCCAAA [A14G C16A U17C A18U C19A A20C]	0.000161 ± 4.5e-05	–	0.00427 ± 0.00081	–	–
AUAAAAGCGCCCGAACUACAGAAAUGUAGGUUCCGAGGAGGAGGUUUAUCGAAUUUUUGGCGGAUGCCUCCAAA [A12C U30G G32U A33C C58U]	< 1e-05	–	< 1e-05	–	–
AUAAAAGCGCCAGAACUACAGAAAUGUAGCUGACGAGGAGGAGGUUUAUAGAGUUUUCGGCGGAUGCCCGCAAA [U30C C50A A53G U69C C70G]	5.5e-05 ± 1.9e-05	–	–	–	–
AUAAAAGCGCCAGAACUACAGAAAUGUAUUUGACGACGGGGAGGUUUAUCGAAUUAUCGGGGGAUGCCUCCAAA [G29U G37C A39G U56A C61G]	< 1e-05	–	–	–	–
AUAAAAGCGCCAGAACUACAGAAAUGUAGUUGACGAGGAGGAGGUUUAUGGAAUUUUCUGCGGAUGGCUCCAAA [C50G G59U C67G]	0.000108 ± 1.9e-05	0.000245 ± 5.2e-05	5.5e-05 ± 1.5e-05	–	–
